Measured values from a protein production outcome set (Wang et al. 2014).

Experiment: label from the status in PepcDB records

MVVVCASHIQPAIICRFTWLRFLMEIILIRHGKPTSANNPVLNAVDFTKWVRRYNFSDVSTNSRPDSILDEYKSHYIVSSDLERAIHSASIYTGQSPELTSKLYREMEIPRYKFPLRFKAMTWVYINRAFWMLGLKGSFESYRQAKIRAELASDHLVELAREQDKVILFGHGYLNLHIRRSLIKKGWKLNSKSNGFWGISSLEGLEHHHHHH
protein production: failed

KVGLIIISHGRIATETVNVVKELLGVKFPVAIDMPLDEKPINIYNKAVELSKIIDQGKGILFLVDIGSLTNIGQIVNKRTNISTKTIDRVDLLMALEATRKVSMGEEELDEIFFSLLKDRMGYNYELEKHIDKS
protein production: failed

MCGSERFQFRSGAKPLIRGRPLDSDMESLHPRVRLLWVLSTVIQASVLGVIAYLVDRFAVSLPQTVVVGGWVVLVLLGVAHAIAAHRIWRFDLQDDALFLLRGVVTRTDTSVPYVRVQHVDTTRGPVERAIGLASVVVYTAGTRGADITIPGLRPERATELREQLRDLANESEATDAV
protein production: failed

MTPYRRILLIMTEAQANAALSRAMALSAASGASLHVLGIHESGVLRLPHELQEAPLHSASFMHFSTELKALLDEQSFVGARPGFEAVETSNPRDQLPACIARYAPDLVIKGCPGHSLLEQIARTSLDQALLH
protein production: failed

MRNFFKKMVVLSVGCLTLPLWAQPHREGVQQKLQSLSVEQKIDLLCARYPGVPQEGLAKYDWWSECLHGVARAGKATVFPKPIGMGSTWDAELIHRIGIAIGDEARAKHHQDVREHGYSDRHYGLTFFSPTLNIARDPRWGRTTECFSEDPLLTSDMGVSFIKGMQGDDPYYLKTVATAKHFVANNEENRRLGGSAIVDEVSLREYYFPAFRDAVVRGYVKSIMGAYNALNGIPCCANSMLLTDVLRKEWGFEGVVISDGSAIDKLYTHHKYVPNLEEGAALALRAGCDMSLRDEYRPGLKKAYHKGLITEHDLNVAVARVLDLRARLGLDKGTDQGNPYKNTPYSVVECERHQQLALEAAEKSMILLKNEGVLPLKPDASKRKLNIALIGDAFKSVYYGDYSGMPEYNRTLLEAFTHDAGRLANLTWMGERSQEVLIPSHLLTQTADQAYDGILGFTARYYEGTKVGKEAALTRQDLTLDFKLAEDAALKQKEVRAASWTSTLKAPQSGRYMFYLEASGRGKLFINGKQMLSKYNGHRFKTSCEVVLKEGEEYKLKVDCEELNTQMPIRLTWTPPFKGTDDTPAKLAKRSDVAILFVRDDNSSEGRDRKNLNLSDAHIELIKEVCAANPKTILLLGGGSTLALKDIIEGPAALLNVWIAGQGEAQAISNILLGKTNPSGKTAVTFCADESELPALDDYDITHGRSYQYFKGKELFPFGFGLSYTNYQYGKPKMKHRKLQQGDKVEVSAEIRNTGKYAGEEVVQCYLSSPTWQKQGLKQKLVGYQRVSLKPGQAKTVKFCIQEEQLKRWNKDKDEWGLNGNQYNLSVVPCSNQQNAVSFTYR
protein production: failed

MAVVASAPGKVLMTGGYLVLEKPNAGLVLSTNARFYAIVKPINEEVKPESWAWKWTDVKLTSPQLSRESMYKLSLNHLTLQSVSASDSRNPFVEHAIQYAIAAAHLATEKDKESLHKLLLQGLDITILGSNDFYSYRNQIESAGLPLTPESLGTLAPFASITFNAAESNGANSKPEVAKTGLGSSAAMTTAVVAALLHYLGVVDLSDPCKEGKFGCSDLDVIHMIAQTSHCLAQGKVGSGFDVSCAVYGSQRYVRFSPEVLSFAQVAVTGLPLNEVIGTILKGKWDNKRTEFSLPPLMNLFLGEPGSGGSSTPSMVGAVKKWQMSDPEKARENWQNLSDANLELETKLNDLSKLAKDHWDVYLRVIKSCSVLTSEKWVLHATEPINEAIIKELLEAREAMLRIRILMRQMGEAASVPIEPESQTQLLDSTMSAEGVLLAGVPGAGGFDAIFAITLGDSGTKLTQAWSSHNVLALLVREDPHGVCLESGDPRTTCITSGVSSIHLE
protein production: failed

MTLTMGFIGFGKSANRYHLPYVNTRKNIKVKTIFARQINEELAAPYEEKGVSFTTNLDELLNDKEIQVVTVCTPAHTHYELAKKVILAGKSVIVEKPFCDTVEHAKELLALGREKGVVVMPYQNRRFDGDFLAVKQVVEQGFLGDIVEVESHIDYFRPGSINHEGPKEEGSFYSLGIHTMDRMISLFGRPDTVTYDIRNNEVDGAVDNYFDVGLHYGNQLKIKLKTNHVVAKDYPRFIVHGTNGSFIKYGEDQQENDLKAGIMPESAGFGEDSPMYYGIAKYRNANGDWIEKQIKTPLGDYGRFYDAAYETIVNGAPKLVKDEEAVTNIEILENGFAAPSPSVYKLEALNLNE
protein production: failed

MTMITFSARLAPFQPETVWTLEAGTLIETRGRIERRFPLSSLTRYSLSLAPDGRRRVLLVVFGRRRLLIPSQSYVGPGRFEDRLAAFSVLARALAAVGADLSPRARFGLARLEARTALTFVMGLLAFGAASTLLFSLTAGMVAVGVDLAARMAFVLILMVAALPWLARPADFDPRDPPADLLP
protein production: failed

MYFEIYKDAKGEYRWRLKAANHEIIAQGEGYTSKQNCQHAVDLLKSTTAATPVKEVLEHHHHHH
protein production: not failed

AYQPIRYRETGKVGELTFEFYNGAMSTEQCQRLVSALRWAKARDTQVLLVRGGRGAFSNGVHLNVIQAAEVPGLEAWANIQAIDDVCLELLTARQLVVSGLTGNAGAGGLMLALAADVVLARADTVYNPHYKSMGLYGSEYWTYSLPRAVGQAMAKQLTEACLPISALQALQMGMVQEIGPRC
protein production: failed

DNKELQKLTEDISETYFKKPFRHQALFNDRLKTTGGRYLLTSHNIELNRKYLIEHGREELIGIIKHELCHYHLHLEGKGYKHRDRDFRMLLQQVNAPRFCTPLKKKAENKKTYMYICTTCGQQYIKKRAMNPDRYRCGKCRGKIKRI
protein production: not failed

MNANQFLKAVSQLQGWRECAFLLALAERSFPNYALFADAVGLKTGGKMRQLLDLAWDMLQKDVADAAIPQLLSKLETLCPNVDEYDAYGVYPAFDFCQLLEQALLNRLNPNKHRATEASQLATRTVMDFVEMSEGEGMDENELVRVFEHHPLLKDDKLFQRDTVMALYYYRTPKEAFLAELRAGAANDGVSNLGISLEG
protein production: not failed

MHRFLSGPLSVEQLTVNIAGLSASLQGKKLVHLSDFHYDGLRLSEEMLAEAIAVSNQVQPDLVLLTGDYVTTTPQPIHQLAKRLQKLQSHAGIYAILGNHDLYQKNSKTEITQALTKAGIQVLWNEIAYPLGEELPIVGIVDYYYREFNPQLLFNQLEPTTPRIVLCHNPDTAAMLQGWRVDLQLSGHTHGGQIVIPGLGAVLPYHKKIVRRVPIKIRRLFPLFFKDYFIVRHAEWLQGLHRIGKNQLYVNRGLGTYLPGRLFCPPELTVITLEAE
protein production: failed

MKEIRIILMGTGNVGLNVLRIIDASNRRRSAFSIKVVGVSDSRSYASGRNLDISSIISNKEKTGRISDRAFSGPEDLMGEAADLLVDCTPASRDGVREYSLYRMAFESGMNVVTANKSGLANKWHDIMDSANQNSKYIRYEATVAGGVPLFSVLDYSILPSKVKRFRGIVSSTINYVIRNMANGRSLRDVVDDAIKKGIAESNPQDDLNGLDAARKSVILVNHIFGTEYTLNDVEYSGVDERSYNANDRLVTEVYVDDRRPVAVSRIISLNKDDFLMSIGMDGLGYQIETDSNGTVNVSDIYDGPYETAGAVVNDILLLSKVQK
protein production: failed

MMHHALHIKNGIVIDPKNGVKAEKMDIFVKNGKIVEESEVKGEDVKVIDANNKLVVAGGVDMHAHIAGSKINTGRTMRPEEMRVVRNIAGKFRAAVGRVLLTSPLEHHHHHH
protein production: failed

MPYITIEGGALTREQKSELIRKVTEVASEVMQIPMEFFLCTVKELPDENIGIGGRTIDLIKLEHHHHHH
protein production: not failed

MGKKTENLKIDAKKSFLKRIAKNVKVSEGERAVEDILRCIYRNQPISTKKIGQYVKLPLPIVSKVRSILERESLLKRDDKGAVLSKKGIDFVENELGLKLKSDMKCPVCSGRNIVFDEKFEKILKKHKTYAKLRPQVNTMIDQSFATPETATARAAIMADRGDLEGKRVLFVGDDDLASIPTAMTGLCSEVVVLDIDDRLLKLISEVSKKENLNIRTVKWDFKNELPSEFVNKFDTIFTDPPYTLNGAVLFMSRGIEALGDNGILYLAFSHKPVEEYIELQKSINNMNFLIYELIPGFNFYEGTEIIGNTTFLARLVGKNLKKIEVNSEKIYTGELKPTLRYYQCMNCKKIHEVGNKVKRIEDLTCECGGKK
protein production: failed

EKAVLIGEKEADITFVTWGSQKGPILDVIEDLKEEGISANLLYLKMFSPFPTEFVKNVLSSANLVIDVESNYTAQAAQMIKLYTGIDIKNKILKYNGRHMTEDEILKSAKEILNK
protein production: not failed

GKRSHSMKRNPNAPVTKAGWLFKQASSGVKQWNKRWFVLVDRCLFYYKDEKEESILGSIPLLSFRVAAVQPSDNISRKHTFKAEHAGVRTYFFSAESPEEQEAWIQAMGEAARVQ
protein production: not failed

SRGMTPGSRLIDYQLIDSTEELAAILGCGHPSSIHKITRVRLANDIPMAIESSHIPFELAGELNESHFQSSIYDHIERYNSIPISRAKQELEPSAATTEEANILGIQKGAPVLLIKRTTYLQNGTAFEHAKSVYRGDRYTFVHYMDRLS
protein production: failed

MSLTPWLSIVGISEEGWLALTPIAQQCILQADILVGSDRHFDLLPSLPGAEQWRWGSPFSATITQILERRGQSICILASGDPMCYGVGSLLAQRLPLTELQILPAPSAFSLACSRLGWALPEVETLSLCGRDPALLNALLYPGAKILALSADRSTPATIAEQLCQQGWGSSRLTVLEHLGGPKERKISEIAEHWSQPTIASLNTVAIECHARDRDLIVPPRLTGLPDAAYHHDGQLTKREVRAITLAALAPLPGQLLWDVGAGCGSIGIEWMRSDRRCRAIAIEQHPQRLQIITQNAIALGVPNLQVVAGSAPATLSGLPQPDAIFIGGGVTAPGVLDQCWQALPMGGRLVVNAVTLESEQVVLAGQQRWGGDLIRVAVQRAEPIGRFLGWKSLAPITQWTVKKTALEHHHHHH
protein production: not failed

MRQGEPGSPFSYLPVYQGPAVMSLRIFYHPLYSALTLPARHRFPLAKYQALFERLGSLGYPLAEAAPATPEQIKRVHDAAYVEAALAGTLDADAIRQLGFPWSPLLMERTLRSVGATLAASRHALEQGCGLQISGGYHHAHRDVGSGFCLFNDLVIAAQVCLDEGRCEQVLIVDLDVHQGDGSAALCQGRRDIITLSLHGEHNFPRYKPASHMDFPLPSGMADDAYLTTLAEALNLALRLYAPDLILYQAGVDVHKDDELGYLALSDEGIRQRDAMVFDCALRHGLPIAAVPGGGYRRDWQQLIPLHMSLFEEAKKRYG
protein production: failed

LGNEDFNSVIQQMAQGRQIEYIDIERPSTGGLGFSVVALRSQNLGKVDIFVKDVQPGSVADRDQRLKENDQILAINHTPLDQNISHQQAIALLQQTTGSLRLIVAREPVHTKSST
protein production: not failed

MAEITEKVLKKPNAIPDVFERKGGSAPTATHYCAGCGHGIIHKLMAEAIDELEIQDRCVLISPVGCAVFAYYYFDCGNIQVAHGRAPAVGTGVSRAEDNAIVMSYQGDGDLASIGLNETIQAANRGEKMAVFFVNNTVYGMTGGQMAPTTLIGEKTVTCQTGRDPRFAGYPIHMCELLSSLKAPVFIERVSVSDIAHIRKAKRAIKKALEIQRDGKGYAFVEILSPCPTNLRQDANAAQKFINEEMEKEFPLQNFRDRSAEVETLNRGESDFSKECLDNIFEVNSKGAEDPSEDLSFEEKLVKIAGFGGQGVLSMGLTLAEAACRDQKYVSWYPSYGPEQRGGTSNCSVIISGHEIGSPVVYSPGVLIALNKPSLENFAKDVKTGGTIIYDENIGDFEIPNGVTAIKVPASKIATEMGVSRAANTVMLGVLSALGYTGLSESVFVGAIEQTFSKKPKLIPINVEILNAGISWAKENLAL
protein production: failed
